According to publication PMC7618375, “Structure and Methyl-lysine Binding Selectivity of the HUSH Complex Subunit MPP8” (Journal of molecular biology, 2024):
No end group written: not given here. Me2 = dimethyl on the lysine side-chain amine

T1: MPP8 chromodomain (CD, residues 55-116) (human, UniProt Q99549 55-116)
T1 construct: MPP8 (M-phase phosphoprotein 8), human, chromodomain, residues 55-116, UniProt Q99549; Cloned in pET15b with a TEV site (ENLYFQG) in place of the thrombin site; also called MPP8 CD; M-phase phosphoprotein 8 chromodomain; source: E. coli BL21 (DE3), purified (Ni-NTA, Mono Q, Superdex 75 SEC)
T1 sequence (looked up): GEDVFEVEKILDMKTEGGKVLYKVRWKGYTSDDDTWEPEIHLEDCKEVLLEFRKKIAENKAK


Columns and labels:
[1] = target: T1, MPP8 chromodomain (CD, residues 55-116); assay: ITC; 750 uM peptide in the syringe titrated into 50 uM MPP8 CD in the cell; 50 mM HEPES pH 7.4, 0.1 M NaCl, 0.5 mM TCEP, 25 °C; single-site model; details: both partners purified
[2] = target: the molecule itself; assay: crystal structure; MPP8 CTD, X-ray, 3.04 Å, eight chains in the asymmetric unit; crystals at 18 °C, PEG 4000/1,2,6-hexanetriol, pH 8.5

Kd [1] [µM]	Binder	stoichiometry N [2]
1.7	TKQTARK(Me2)STGGK [Histone H3 peptide dimethylated at lysine 9]	
	MPP8 C-terminal domain (CTD, residues 547-860) (domain or fragment, human, UniProt Q99549 547-860, looked up, MPP8 (M-phase phosphoprotein 8), human, C-terminal domain (ankyrin repeats and PINIT-like domain), residues 547-860, UniProt Q99549; residues 547-562 disordered in the crystal, model spans 563-860; also called MPP8 CTD; source: E. coli BL21 (DE3), purified (Ni-NTA, thrombin cleavage, Resource Q, Superdex 200 SEC); not shown: His6, N-terminal, cleaved) DFQKHLDGKDENFAATDAIPSNVLRDAVKNGDYITVKVALNSNEEYNLDQEDSSGMTLVMLAAAGGQDDLLRLLITKGAKVNGRQKNGTTALIHAAEKNFLTTVAILLEAGAFVNVQQSNGETALMKACKRGNSDIVRLVIECGADCNILSKHQNSALHFAKQSNNVLVYDLLKNHLETLSRVAEETIKDYFEARLALLEPVFPIACHRLCEGPDFSTDFNYKPPQNIPEGSGILLFIFHANFLGKEVIARLCGPCSVQAVVLNDKFQLPVFLDSHFVYSFSPVAGPNKLFIRLTEAPSAKVKLLIGAYRVQLQ	2
